Assay results published in the DeepSol protein solubility set.

Assay: soluble on expression in E. coli; label from the status in PepcDB or PDB records

Sequence	soluble on expression in E. coli
MSNKGGGQRSGEIGVDELWTVYKSFIRETGLARQHLDSFNRLVTQEIQKIIDSIREVRPQWRIYAGRRRYRRGRFEEHEIHLPDVKIVFGKARFKEPMAREVIESFDRRVTPFECRVRGITYSAPLMVEMTIVQDNMIEKTREVKIADFPVMVKSVLDPLSKYDEETVIEMGEDPGDPGGYFIINGSEKVIVAQEDLAVNRIIVNKSTAATARITHTAKAVSTVLGLRRQAIVDRMSDGTLEASLSRLRYRIPLVVLLRALGLEKDMEIMLAVSADPDVQREMLPSLEKGRALAPTKEDALKYLGNRIAPGQPLDVRIRRAEEFLDTQLLPHLGNRPEDRIKKAYFLAEMANRVLQLYLGKRGEDDKDFLGNKRLRLAGDLIAELFRESLEALANTMAQKLEEQLAERRQIRLDFLVRPTIISDRLKGAIATGNWGQDRTGISQQLDRTNWISLLSHLRRVISPLSRGQAHFEARDLHGSHWGRYCPFETPEGINCGLVKNLALSAYISVGVDESVVEEILVKDLGVAPLERILEEAKQAGEPPEIMLKGTKVFINGRPLGYHPNGAELARKIRELRRSDKLEVERPWEVSVYHLREGEIDELYVNTDSGRLMRPVVVVENGEPKLTREHVEKLSRGEITFWDLVKQGVVEMLDPEEEQNALIAELPWEVTKEHTHMELWVPAIVGVAAATIGYLEHNQSPRNTYQAAMAKQALGVYALNYRIRLDSHSYLLQYPQVPIVQTRMLDIMGYNERPAGQNMVVAIMSYTGYNIEDALIFNKGSIDMGLARAYFFRVYTGIENEYPGGERDRITLPKPDEVYDYRGAAAYAKLEADGIVAPETEVEGGEILIGRVSPPRFLGEGRVISMATVRRRDTSIPMRLGEKGVVDMVVISTTVERNKLVKVRVRNLRIPEIGDKFASRHGQKGVIGMIFPRYDMPYTEEGIEPDVILNPHAIPSRMTVGQLLEEIAGKLGAIKGRFVDATPFFKEDIDGLRIELLKEGYDPNAREVMYDGRTGQIIEAPITIGVAYYQRLYHMVADKIHARATGRVHLLTRQPTEGKARQGGLRFGEMERDCLVGHGASMLLRDRMLDNSDAYVMYVCNTCGNIAWFNRRKKVLECPIHGEEGDIRPVKVPYAFKLLLQEITSMMIKPELKVADKISVIRKVVGDYT	soluble
MSNLRIAYDRLRSMSRTEENPTVQAMQIALHIPKNDPPARSEILQAAAQAVVACCLSEESVTDEWYGNRLQQWYDHRIRKVARRGRNAAWERVTTLPGVSSVSGSAEARAFVPGPVDSVDPLLKKLQISHTDVPFDSPADPTEGPVLYVDRGLGMSVGKTAAQVGHGSMLLAAAQPFEWVERWADQGYRLSVREVDSEVFRKAAEQPGAVHVIDAGFTEVAPSSLTVVALPMLLF	not soluble
MSNPEQHIQDLALEEVMGDRFGRYSKYIIQERALPDVRDGLKPVQRRILFAMNVEGNTAEKGFRKSAKTVGNVIGNYHPHGDSSVYEAMVRMSQDWKVRNMLIEMHGNNGSVDGDPPAAMRYTEARLSPISAELLRDIEKETVDFIPNFDDTSSEPTVLPARFPNLLVNGSTGISAGYATDIPPHNLTEIIEAVIKRLDNPLCTTDDIMKIVKGPDFPTGGIIQGIDGIRKAYQTGKGRVVVRSKTEIEDIRGGRKQITIHEIPYEVNKANLVKRMDELRIEKKIEGISEVRDETDRTGLRIAVELKKDANAEGVLNYLFKNTDLQVSYNFNMVAINKKRPELMGIIPMLDAYIEHQKEIITKRSEYDIRKARARQHILEGLIKALSILDEVIKLIRGSKDKRDAKLNLQTKYDFSEKQAEAIVSLQLYRLTNTDIHELQSEAKSLAEQISVLEKILGDEAELIAVLKEELAEIKKKYKTARRTEVQAEIAEIKIDTEVLVANEDVIVSVTKEGYVKRTSQRSYAASNGAELAMKEADHAIFIQKMNSLDSLLLFTSKGNFIYRPVHELPDIRWKNLGDHVSHLASDLSAGEEIRSAIAIQAFTEEKRFLFVTKNGMTKQSAITNYKPQRYSKSMMAIKLKGDDELLSVHLIDGTEDIFLATKNGYGLRYSITEIPESGARTAGVKAINLKQDDIVIGGIVLMPNEQKHILLATQRGSLKQMKASEFEPISRAKRGLLMLRELKSNPHRFIGITLADNNDHLFIETNTDQIVEIDVANLRITDRYSNGSFVLDETMEGEPTSIWLAIPEIKDTSDAKEE	not soluble
MSNRFAVILAAGKGTRMKSKLYKVLHPVCGKPMVQHVVDQVSQLGLQKLVTVVGHGAEMVQEQLGNVSEFALQAEQLGTAHAVDQAAGVLANEEGTTLVICGDTPLITAETMEALLQQHKEAGAMATVLTAYIEEPAGYGRIVRNENGHVEKIVEHKDANEKELAIKEINTGTYCFDNKALFASLSKVSNDNVQGEYYLPDVIEILKNEGHIVSAYQTEHFDETLGVNDRVALSQAEIIMKNRINRKNMVNGVTIIDPSNTYISADAIIGSDTVLHPGTIIEGNTVIGSDCEIGPHTVIRDSEIGDRTTIRQSTVHDSKLGTEVSVGPFAHIRPDSVIGDEVRVGNFVEIKKTVFGNRSKASHLSYIGDAQVGEDVNLGCGSITVNYDGKNKFKTVIGNGVFIGCNSNLVAPVTVEDGAYVAAGSTITENVPSKALSVARARQVNKEDYVDQLLNKKKS	not soluble
MSNSTMEATQMKVKLAVDEMIDDLDKTYLRDMQKSMFQCSARCCDNKKTTRDAVENCVESCNDGMKKAQGYLEKELGGLQDQLSRCAMTCYDKLVQQFGPDVNKYSESQKLSFNEKLDSCVSVCADDHIKLIPAIKKRFAKNT	not soluble
MSNVHPYTIFATMPHKSTAKDILIMSYDLSKRLVIGLASSALFDLSESDNIFRMEGAETYRQYQREKQNHPLKKALSFHLLKNFCQSMK	not soluble
MSPAQIIRTSHSFPPSFTGTSSSAENSHAQSPQQVLTRAFVASGELNAAFGRTSTASAQDFTSLLGTLQRELEKKTPAFPDLAELANQLADAAMGDQGGHWLGRDEQQTLKGMIDRCKSQLAHTPASDASYDLLAQVCENLKKARLHQSISQMTGEAHAKVRGVPDLLALIQLDPDILAEKPVGMPSYVKFSSFICMAKARTAELSENLRNASNEVALLLHPHADTILEQGSLRLQIVGF	not soluble
MSPKVTKEHKDKRQAEILEAAKTVFKRKGFELTTMKDVVEESGFSRGGVYLYFSSTEEMFRRIIETGLDEGLRKLDKSAEHQSVWASISSYLDELTEGLRDVADTLAPVQFEYLVTAWRNEERRQYLEKRYDLFVERFSRLLQKGIDQGEFQPVQPLATIAKFFLNMNDGIIQNALYFDEEKADVSGLAESAKLYLKTVLQADEK	soluble
MSPLSSGLLGDLDPTSDRAVFRQIADQLREAIDRGRFREGEKLPSEAELVDHYGVSRMTVRNSFSILQGEGLVHAEHGKGVFVRPRPPVRRLASDRFARRHREQGKSAFIVEADAVGSHPKVDSLEVKEEKASQDISTRLGSVRRVLARRRRYLLDGRPVEFATSYLPLDIARGTQIAEPNPGPGGIYARLEELGHRLDHFEEEIRARMPSPAEVKTLHLAAGVPVIHLIRTAFDTEGRAVEVCDTVMAADAYVLSYQLPAT	not soluble
MSPMNRQRKNKSNVLNEKDERPGCIIKEKSSVRSMAKTQPTSGRTISLSEINKPIALSKKNTEIKAAVEIQNRLTKKMAKNSERRKKMAHGPEMTAQNRTQERIDFVEFLDRHYQVMQAGVSTVKVHKMHYTKEEFENVIYEAQTIFSSEKALVDIDPPCVVVGNLHGQFNDLINMFILLGRPPETVYVFTECVTSIPKCGEEIWALFQRCFNNLPISALIATKILCMHGGLSPALTCLDELRNHPKPIRNPFRGIVNDMLWADPDPSVFEWKTSSRGSGFTFGTNVIDDVCKRLGVELIIRAHQMCFDGYWVLSGRKLITIFSAPMYCNFYKNTGCVLKVDETLGIQTVAFVPESENIEKIIEEMNRVWDISIDCIE	not soluble
MSPQVSIVIPNHDYGRYLDACLDSLAAQTLPVQRMEVIVVDDASGDDSLERAARWQACHPWKAFTVVPLSRVGRPGPVRNAGLRRAQAALMLCLDPDDTLAPEALVRMVEALDNAPHAHVASSDYFEHRGEHIRRVNIPDDDSNVLPTQNPCHSASLFRREVWEATGGYTAATAYEDWDFWVRAASCGMRRVRVPYPLVHYRLRDDGFWVGASADDAKAKAAIVRRTPAFFAPEVRGWAVAILRGETWMPAFPRGVIPTAEALRAFRDDCMARLGPQADSLFTALPGWPRKTGESSRSGETGQSGLEHHHHHH	not soluble
MSQEVEETLKRIQSHKGVVGTIVVNNEGIPVKSTLDNTTTVQYAGLMSQLADKARSVVRDLDPSNDMTFLRVRSKKHEIMVAPDKDFILIVIQNPTD	soluble
MSQIIWGAYAQRNTEDHPPAYAPGYKTSVLRSPKNALISIAETLSEVTAPHFSADKFGPKDNDLILNYAKDGLPIGERVIVHGYVRDQFGRPVKNALVEVWQANASGRYRHPNDQYIGAMDPNFGGCGRMLTDDNGYYVFRTIKPGPYPWRNRINEWSPAHIHFSLIADGWAQRLISQFYFEGDTLIDSCPILKTIPSEQQRRALIALEDKSNFIEADSRCYRFDITLRGRRATYFENDLT	soluble
MSQMELIKKLREATGAGMMDVKRALEDAGWDEEKAVQLLRERGAMKAAKKADREAREGIIGHYIHHNQRVGVLVELNCETDFVARNELFQNLAKDLAMHIAMMNPRYVSAEEIPAEELEKERQIYIQAALNEGKPQQIAEKIAEGRLKKYLEEVVLLEQPFVKDDKVKVKELIQQAIAKIGENIVVRRFCRFELGA	soluble
MSQNHVIELANTLKQRPIVCDYTGGRFRLTNEGLTYIGIDRDGTPLPPRWICAPLHIVAKTRDAQSGEWGRLLEWQDDDGITHQWAMPLALLQGDASDVRRELARLGLSISPHRTARDLLASYLQVFPVDARARCVDKLGWHGDVFVTASQCIGQSTEKIVFQNTNAIEPAMSIKGSVDKWRDSIGRLASGNSRLVFAISVALAPVLAKIVGEDSGGFHFRGASSSGKSTALSLAASVWGNPQSYCRLWRSTTNGLEGLAALHNDGLLILDELSQMDPREAGEAAYLLANGQGKTRASRTGTVRQSSRWSLFFLSAGEESLTALMAKSGQRINAGQEIRLADIEADAGCQMGIFETIHDQLSPASMALSLKKYSSGYHGAIGRAWLNQVVANRQTISRFITDTIQSFVDIVIQPDATGQIIRVARRFALVAAAGELASQFGLTGWKKGESFHAAKTCFIAWQDAFGVDGHREDRAIMAQVRAFFESHGASRFDNVNSPNNDKILNRAGFYHTDGEGFRIYMVLTETYKNELCKGFDQRTVTRVLLQAGWLKPASDGKASHKPRIKGVGTPRLYVFTGKIWGGELEHHHHHH	soluble
MSQQKSDFADDADIDESLDELASEETIEETVENLEANGFEVIVVNSADDALAELQSLIPAEASVMNGHSTTLEEIGFDEYLSDGDHGWESLPEEIWSIDDDAKRQAARRESQTADYFLGGINGISQTGELVAADRSGSRIGAYPFAASNVVIVSGVNKIVPTLEDALDRLETVAYPLENERAKEAYGVDSAIAKQLILRQELEEGRTTVVLIREHLGYLEHHHHHH	soluble
MSQSKADYINVIGAGLAGSEAAYQIAKRGIPVKLYEMRGVKATPQHKTTNFAELVCSNSFRGDSLTNAVGLLKEEMRRLDSIIMRNGEAHRVPAGGAMAVDREGYAEAVTAEIESHPLIEVIRKEITEIPDDAITVIASGPLTSDALAEKIHELNGGDGFYFYDAAAPIVDKATIDMNKVYLKSRYDKGEAAYLNCPMTKEEFMAFYEALTTAEEAPLNSFEKEKYFEGCMPIEVMAKRGIKTMLYGPMKPVGLEYPEDYMGPRDGDFKTPYAVVQLRQDNAAGSLYNIVGFQTHLKWGEQKRVFQMIPGLENAEFVRYGVMHRNSYMDSPNLLKQTFQSKSNPNLFFAGQMTGVEGYVESAASGLVAGINAARLFKGEDEVIFPHTTAIGSLPYYVTHAESKHFQPMNVNFGIIKELEGPRIRDKKERYEKIAERSLKDLQTFIDALEHHHHHH	soluble
